Reference: PMC7028823, “EF1025, a Hypothetical Protein From Enterococcus faecalis, Interacts With DivIVA and Affects Cell Length and Cell Shape” (Frontiers in Microbiology, 2020)

What was measured:
[1] = molecular target: DivIVAEf (bacterial two-hybrid fusion) (Enterococcus faecalis JH2-2) (UniProt Q93C53); experiment: two-hybrid; bacterial two-hybrid (Di Lallo) in E. coli R721, vectors pcI434-L and pcIp22-L, 0.1 mM IPTG; residual β-galactosidase activity, less than 50% indicates a positive interaction
[2] = molecular target: the molecule itself; experiment: SEC-MALS; 1 mg purified 6×His-EF1025 on Superdex 200 in 50 mM Tris base, 400 mM NaCl, pH 7.4; also with 1 mM dithiothreitol

| Molecule | residual β-galactosidase activity [1] [%] | stoichiometry N [2] |
| --- | --- | --- |
| EF1025-c (AA80-209 of EF1025), bacterial two-hybrid fusion (domain or fragment) | 14 | – |
| 6×His-EF1025 (natural protein, Enterococcus faecalis JH2-2, UniProt Q836T2 1-209, looked up, hypothetical protein EF1025 of Enterococcus faecalis (209 AA), gene amplified with primers EF1025F-F/R and cloned into pET30a(+); Vector pET30a(+); also called pETEF1025; source: E. coli C41 (DE3), in lysate supernatant (pull-down); copies: 10) MKLSKRQEQIIAVVKEHQPVSGERISDILAVSRATLRSDLSFLTLSGILKASPKVGYTYESDNMEAFFFFDVFQTKVQEIMSPPLMVAQDTSIRDAITNLFMYDVGSLYVMDEAKELLGVLSRKDLLRASLNTNIDGTPVAVCMTRVPHVKTCTPEFTILEAADTLQKYEVDSLPVVEKENPKKVIGKITKTKILTYITQQAKEAAQNR | – | 10 |
